According to patent EP4477665A1 (AffyXell Therapeutics Co., Ltd., dated 2024):

Key:
[1] = target: T1, human serum albumin (human, UniProt P02768 25-609); assay: bridging ELISA: capture on coated hCD40L, 10 uM HSA, anti-HSA detection
T1 construct: also called HSA

[2] = target: T2, hCD40L expressed on hCD40L-HEK-293 cells (Crown Biosciences, C2041) (human, UniProt P29965 1-261); assay: flow cytometry on hCD40L-HEK293 cells, doses 0.7 to 500 nM
T2 construct: whole, on cells; also called huCD40L HEK293
T2 sequence (looked up): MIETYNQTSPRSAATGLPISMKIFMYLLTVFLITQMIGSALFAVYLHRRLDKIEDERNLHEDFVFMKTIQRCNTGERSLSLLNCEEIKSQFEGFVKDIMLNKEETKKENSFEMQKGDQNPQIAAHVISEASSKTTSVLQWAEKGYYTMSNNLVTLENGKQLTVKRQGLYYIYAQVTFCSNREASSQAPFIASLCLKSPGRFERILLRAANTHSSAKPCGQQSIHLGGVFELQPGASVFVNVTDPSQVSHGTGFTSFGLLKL

[3] = target: T3, human CD40L (hCD40L antigen) (human, UniProt P29965 113-261, limits assumed); assay: cell-based or functional assay
T3 sequence (looked up): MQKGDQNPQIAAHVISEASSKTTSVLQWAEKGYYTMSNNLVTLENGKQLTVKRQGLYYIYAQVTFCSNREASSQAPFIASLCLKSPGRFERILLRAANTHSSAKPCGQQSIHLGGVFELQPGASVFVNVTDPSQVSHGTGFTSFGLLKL

T1 sequence (P02768 25-609): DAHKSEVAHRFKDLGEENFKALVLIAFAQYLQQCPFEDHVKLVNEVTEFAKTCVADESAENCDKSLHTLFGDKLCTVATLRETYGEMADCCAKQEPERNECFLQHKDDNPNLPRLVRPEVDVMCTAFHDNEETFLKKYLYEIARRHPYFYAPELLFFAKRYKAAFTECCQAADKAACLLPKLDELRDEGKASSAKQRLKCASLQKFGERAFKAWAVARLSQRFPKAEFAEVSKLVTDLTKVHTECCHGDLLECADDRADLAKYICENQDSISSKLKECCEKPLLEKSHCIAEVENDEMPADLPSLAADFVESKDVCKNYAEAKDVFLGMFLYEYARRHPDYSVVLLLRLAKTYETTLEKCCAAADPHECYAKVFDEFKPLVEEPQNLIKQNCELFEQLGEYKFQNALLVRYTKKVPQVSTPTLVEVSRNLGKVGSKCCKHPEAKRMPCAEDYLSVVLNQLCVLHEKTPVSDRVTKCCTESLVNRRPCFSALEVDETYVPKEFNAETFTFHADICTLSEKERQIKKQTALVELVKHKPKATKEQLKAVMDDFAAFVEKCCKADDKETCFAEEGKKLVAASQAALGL

B1: clone-230 XT76 (designed binder)
chain: IPGGLSEAKPATPEIQEIVDKVKPQLEEKTGETYGKLEAVQYKTQVVHYYVHYNDQGTNYYIKVRAGDNKYMHLKVFKSLWGENLFAKWEDLVLTGYQVDKNKDDELTGFAEAAAKEAAAKEAAAKEAAAKEAAAKEAAAKMIPGGLSEAKPATPEIQEIVDKVKPQLEEKTGETYGKLEAVQYKTQVVHYYVHYNDQGTNYYIKVRAGDNKYMHLKVFKSLWGENLFAKWEDLVLTGYQVDKNKDDELTGFAEAAAKEAAAKEAAAKEAAAKEAAAKEAAAKMIPGGLSEAKPATPEIQEIVDKVKPQLEEKTGETYGKLEAVQYKTQVVHYYVHYNDQGTNYYIKVRAGDNKYMHLKVFKSLWGENLFAKWEDLVLTGYQVDKNKDDELTGFAEAAAKEAAAKEAAAKEAAAKEAAAKEAAAKMIPGGLSEAKPATPEIQEIVDKVKPQLEEKTGETYGKLEAVQYKTQVVHYYVHYNDQGTNYYIKVRAGDNKYMHLKVFKSLWGENLFAKWEDLVLTGYQVDKNKDDELTGFAEAAAKEAAAKEAAAKEAAAKEAAAKEAAAKMIPRGLSEAKPATPEIQEIVDKVKPQLEEKTGETYGKLEAVQYKTQVLANFFQRRWPGSTNYYIKVRAGDNKYMHLKVFNGPWKFRNTDRGADRVLTGYQVDKNKDDELTGF
binding result [1]: binds

B2: clone 230 (designed binder)
chain: MIPGGLSEAKPATPEIQEIVDKVKPQLEEKTGETYGKLEAVQYKTQVVHYYVHYNDQGTNYYIKVRAGDNKYMHLKVFKSLWGENLFAKWEDLVLTGYQVDKNKDDELTGF
binding result [2]: binds

B3: clone 230 DJ (designed binder)
chain: IPGGLSEAKPATPEIQEIVDKVKPQLEEKTGETYGKLEAVQYKTQVVHYYVHYNDQGTNYYIKVRAGDNKYMHLKVFKSLWGENLFAKWEDLVLTGYQVDKNKDDELTGFGGGGSGGGGSGGGGSGGGGSGGGGSGGGGSMIPGGLSEAKPATPEIQEIVDKVKPQLEEKTGETYGKLEAVQYKTQVVHYYVHYNDQGTNYYIKVRAGDNKYMHLKVFKSLWGENLFAKWEDLVLTGYQVDKNKDDELTGFGGGGSGGGGSGGGGSGGGGSGGGGSGGGGSMIPGGLSEAKPATPEIQEIVDKVKPQLEEKTGETYGKLEAVQYKTQVVHYYVHYNDQGTNYYIKVRAGDNKYMHLKVFKSLWGENLFAKWEDLVLTGYQVDKNKDDELTGF
EC50, HEK-Blue cell-based assay [3]: 5.99 nM

B4: clone-230 XT75 (designed binder)
chain: IPGGLSEAKPATPEIQEIVDKVKPQLEEKTGETYGKLEAVQYKTQVVHYYVHYNDQGTNYYIKVRAGDNKYMHLKVFKSLWGENLFAKWEDLVLTGYQVDKNKDDELTGFAEAAAKEAAAKEAAAKEAAAKEAAAKEAAAKMIPGGLSEAKPATPEIQEIVDKVKPQLEEKTGETYGKLEAVQYKTQVVHYYVHYNDQGTNYYIKVRAGDNKYMHLKVFKSLWGENLFAKWEDLVLTGYQVDKNKDDELTGFAEAAAKEAAAKEAAAKEAAAKEAAAKEAAAKMIPGGLSEAKPATPEIQEIVDKVKPQLEEKTGETYGKLEAVQYKTQVVHYYVHYNDQGTNYYIKVRAGDNKYMHLKVFKSLWGENLFAKWEDLVLTGYQVDKNKDDELTGFAEAAAKEAAAKEAAAKEAAAKEAAAKEAAAKMIPRGLSEAKPATPEIQEIVDKVKPQLEEKTGETYGKLEAVQYKTQVLANFFQRRWPGSTNYYIKVRAGDNKYMHLKVFNGPWKFRNTDRGADRVLTGYQVDKNKDDELTGF
binding result [1]: binds
